In US10568344B2, “Methods of improving animal performance” (Novozymes A/S, priority 2015, dated 2020):
Like-named read-outs stand apart in the source and are kept apart here. Marks after values point to notes of the source that are not given here.

Experiments:
[1] = tested on: Clostridium perfringens DSM756; assay type: cell-based; settings: for Diameter of clearing zone: lysozymes 100 μg/ml, bacitracin 50 μg/ml
[2] = In vivo broiler trial 3, growth performance; parameters: species or system male broiler chickens; Motality: unit not given here
Procedure: The in vivo trial was carried out as described in example 7, except the feed was supplemented with the GH25 lysozyme (SEQ ID NO: 1) at 12.5 or 25 mg per kg feed, the GH24 lysozyme (SEQ ID NO: 4) at 12.5 or 25 mg per kg feed or with Avilamycin at an inclusion level of 10 mg/kg. No additional enzymes (e.g. phytase) were added to the feed. The experimental diets (Starter, Grower and Finisher) were based on soybean meal, wheat and rye (12%) as main ingredients (Table 8). The diets were formulated to contain 225 g crude protein and 12.5 MJ/kg MEN for the starter period, 215 g crude protein and 12.8 MJ/kg MEN for the grower period and 205 g crude protein and 13.0 MJ/kg MEN for the finisher period.

[3] = In vivo piglet trial, growth performance; parameters: species or system weaned piglets
Procedure: The trial was performed from Oct. 23 to Dec. 4, 2014 at the Research Center for Animal Nutrition (DSM Nutritional Products France, F-68305 Village-Neuf) according to the official French guidelines for experiments with live animals. One hundred and four castrated male crossbred (Large-White (female)×Redon (male)) weaned piglets having 28 days of age supplied by the commercial farm “[…] du Rhin” located in Balgau (France), were used in a 42-day experiment. The initial bodyweight of the piglets was 7.88±0.675 kg. They were sorted by body weight into 32 groups of 3 or 4 piglets and randomly allotted to each dietary treatment. Each group of animals was placed in one flat-deck cages and allocated to one of the different treatments. Each treatment was replicated with 8 cages using a total of 26 animals (6 cages of 3 animals/treatment and 2 cages of 4 animals/treatment) per treatment. […] Animals were housed in an environmentally controlled room. Room temperature was initially 27° C. and was lowered weekly by about 2° C. until 21-22° C. and relative humidity percentage was 50%. The experimental diets (Pre-Starter and Starter) were fed ad libitum in two feeding phases from day 0 to 14 (phase 1, Pre-starter) and day 14 to 42 (phase 2, Starter). The ingredient composition and the calculated nutrient levels of the experimental diets for phases 1 and 2 are presented in table 11. Both diets were formulated to meet the animals' requirements according NRC (2012) and were fed in pelleted form. Pelleting conditions were at 70° C. for 30 seconds. […] No additional enzymes (e.g. phytase) were added to the feed. […] Appropriate amount of the liquid preparations of lysozyme was diluted in water and sprayed onto the respective pelleted feed to get the final concentrations in the feed corresponding to the different treatments. For procedural balance of all treatments the same volume of water were also sprayed onto the pellets of the control diets. Body weight of the individual animals and feed consumption per pen were recorded on days 14 and 42 of the study. […] The experimental unit was the piglet, except for ADFI and FCR which were measured by cage, and in both cases, treatment was used as class variable. One-factorial ANOVA and Student-Newman-Keuls test was used to assess differences among means in treatment groups.

[4] = tested on: Exiguobacterium undae (DSM14481); experiment: Lysozyme activity turbidity assay (optical density drop); assay type: biochemical; settings: pH 6
[5] = tested on: Micrococcus lysodeikticus ATTC No. 4698; experiment: as above; settings: pH 6
[6] = Finisher (d 36-42), 12.5 mg/kg feed
[7] = Finisher (d 36-42), 25 mg/kg feed
[8] = Grower (d 22-36), 12.5 mg/kg feed
[9] = Grower (d 22-36), 25 mg/kg feed
[10] = Starter (d 1-22), 12.5 mg/kg feed
[11] = Starter (d 1-22), 25 mg/kg feed
[12] = Whole period (d 1-42), 12.5 mg/kg feed
[13] = Whole period (d 1-42), 25 mg/kg feed

B1: SEQ ID NO: 4: mature amino acid sequence of a wild type GH24 lysozyme from Trichophaea saccata (protein, listed as Trichophaea saccata)
chain: YPVKTDLHCRSSPSTSASIVRTYSSGTEVQIQCQTTGTSVQGSNVWDKTQHGCYVADYYVKTGHSGIFTTKCGSSSGGGSCKPPPINAATVALIKEFEGFVPKPAPDPIGLPTVGYGHLCKTKGCKEVPYSFPLTQETATKLLQSDIKTFTSCVSNYVKDSVKLNDNQYGALASWAFNVGCGNVQTSSLIKRLNAGENPNTVAAQELPKWKYAGGKVMPGLVRRRNAEVALFKKPSSVQAHPPKC
modifications: mat_peptide (1)..(245)
Diameter of clearing zone ([1]; Experiment 1, 1/2 MHB pH 6): 11 mm
Diameter of clearing zone ([1]; Experiment 1, 1/10 MHB pH 7): 9 mm
Diameter of clearing zone ([1]; Experiment 2, 1/2 MHB pH 6): 10 mm
Diameter of clearing zone ([1]; Experiment 2, 1/10 MHB pH 7): 8 mm
Zones around the wells challenged with the enzyme ([1]; both conditions tested (1/10 MHB pH 7 and ½ MHB pH 6)): 8-11 mm
Benefit over the NC diet ([2]; 12.5 mg/kg): did not show any benefit
FCR [2, 6]: 1.969
FCR, Relative to C (%) [2, 6]: 100.4%
Feed intake [2, 6]: 1560 g/b
Feed intake, Relative to C (%) [2, 6]: 104.8%
Weight gain [2, 6]: 795 g/b
Weight gain, Relative to C (%) [2, 6]: 104.4%
FCR [2, 7]: 1.919
FCR, Relative to C (%) [2, 7]: 97.9%
Feed intake [2, 7]: 1524 g/b
Feed intake, Relative to C (%) [2, 7]: 102.5%
Weight gain [2, 7]: 800 g/b
Weight gain, Relative to C (%) [2, 7]: 105.1%
FCR [2, 8]: 1.692
FCR, Relative to C (%) [2, 8]: 98.2%
Feed intake [2, 8]: 2298 g/b
Feed intake, Relative to C (%) [2, 8]: 100.5%
Weight gain [2, 8]: 1359 g/b
Weight gain, Relative to C (%) [2, 8]: 102.4%
FCR [2, 9]: 1.714
FCR, Relative to C (%) [2, 9]: 99.5%
Feed intake [2, 9]: 2336 g/b
Feed intake, Relative to C (%) [2, 9]: 102.2%
Weight gain [2, 9]: 1364 g/b
Weight gain, Relative to C (%) [2, 9]: 102.7%
FCR [2, 10]: 1.469
FCR, Relative to C (%) [2, 10]: 102.0%
Feed intake [2, 10]: 1608 g/b
Feed intake, Relative to C (%) [2, 10]: 101.9%
Weight gain [2, 10]: 1095 g/b
Weight gain, Relative to C (%) [2, 10]: 99.9%
FCR [2, 11]: 1.414
FCR, Relative to C (%) [2, 11]: 98.1%
Feed intake [2, 11]: 1603 g/b
Feed intake, Relative to C (%) [2, 11]: 101.6%
Weight gain [2, 11]: 1133 g/b
Weight gain, Relative to C (%) [2, 11]: 103.4%
EPEF [2, 12]: 408
EPEF, Relative to C (%) [2, 12]: 97.6%
FCR [2, 12]: 1.683
FCR, Relative to C (%) [2, 12]: 100.2%
Feed intake [2, 12]: 5466 g/b
Feed intake, Relative to C (%) [2, 12]: 102.1%
Motality [2, 12]: 11.3
Weight gain [2, 12]: 3249 g/b
Weight gain, Relative to C (%) [2, 12]: 102.0%
EPEF [2, 13]: 425
EPEF, Relative to C (%) [2, 13]: 101.7%
FCR [2, 13]: 1.657
FCR, Relative to C (%) [2, 13]: 98.6%
Feed intake [2, 13]: 5450 g/b
Feed intake, Relative to C (%) [2, 13]: 101.9%
Motality [2, 13]: 10.0
Weight gain [2, 13]: 3290 g/b
Weight gain, Relative to C (%) [2, 13]: 103.3%
EPEF improvement compared to NC diet ([2]; whole period, 25 mg/kg): 2.4%
FCR improvement compared to NC diet ([2]; whole period, 25 mg/kg): 1.2%
ADFI, % relative NC ([3]; day 0-14, 50 ppm): 92.5%
ADFI, Mean ([3]; day 0-14, 50 ppm): 333 g/day
ADWG, % relative NC ([3]; day 0-14, 50 ppm): 91.4%
ADWG, Mean ([3]; day 0-14, 50 ppm): 265 g/day
FCR, % relative NC ([3]; day 0-14, 50 ppm): 102.6%
FCR, Mean ([3]; day 0-14, 50 ppm): 1.272^b
ADFI, % relative NC ([3]; day 0-42, 50 ppm): 100.8%
ADFI, Mean ([3]; day 0-42, 50 ppm): 740^b g/d
ADWG, % relative NC ([3]; day 0-42, 50 ppm): 107.8%
ADWG, Mean ([3]; day 0-42, 50 ppm): 538 g/day
EPEF, % relative NC ([3]; day 0-42, 50 ppm): 115.3%
EPEF, Mean ([3]; day 0-42, 50 ppm): 391
FCR, % relative NC ([3]; day 0-42, 50 ppm): 92.9%
FCR, Mean ([3]; day 0-42, 50 ppm): 1.379^a
ADFI, % relative NC ([3]; day 14-42, 50 ppm): 101.5%
ADFI, Mean ([3]; day 14-42, 50 ppm): 944^c g/d
ADWG, % relative NC ([3]; day 14-42, 50 ppm): 111.8%
ADWG, Mean ([3]; day 14-42, 50 ppm): 674 g/day
FCR, % relative NC ([3]; day 14-42, 50 ppm): 90.9%
FCR, Mean ([3]; day 14-42, 50 ppm): 1.404^a
Improvement on FCR compared to the negative control ([3]; overall period (day 0 to day 42), 50 mg/kg): 7.1%
Improvement to FCR compared to NC ([3]; starter period, day 15 to day 42, 50 mg/kg): 9.1%
Improvement of ADWG compared to the negative control diet ([3]; starter period, 50 mg/kg): 11.8%
EPEF improvement compared to the negative control ([3]; whole period, 50 mg/kg): 15.3%
Improvement of ADWG compared to the negative control diet ([3]; whole period, 50 mg/kg): 7.8%
Lysozyme activity as measured by Optical Density Drop [4]: ++ (pH 6)
Lysozyme activity as measured by Optical Density Drop [5]: ++ (pH 6)
